Source: PMC9330637
Where two headings read alike, the source gives them in different places.

Tests used:
[1] = target: T1, FUS wild-type (UniProt P35637 1-526); test: fluorescence anisotropy
[2] = target: T1, FUS wild-type; test: single-molecule fluorescence
[3] = target: T1, FUS wild-type; test: single-molecule fluorescence; remark: listed apart in the source
[4] = target: FUS Y>S (UniProt P35637 1-526, Y6S;Y14S;Y17S;Y25S;Y33S;Y38S;Y41S;Y50S;Y55S;Y58S;Y66S;Y75S;Y81S;Y91S;Y97S;Y100S; …); test: single-molecule fluorescence

**Q.** For UUUUUUUUUUUUUUUUUUUUUUUUUUUUUUUUUUUUUUUU (ssRNA) [U40 RNA], which Kd [1] is on record?
**A.** ~5 nM

B1: pdPAR9 (mixed)
DNA 1: TGGCGACGGCAGCGAGGC
DNA 2: GCCTCGCTGCCGTCGCCA
modifications: PAR 9-mer joined to DNA strand 1 by alkyne-azide click; PAR not part of printed strand
**Q.** Does B1 bind [2]?
**A.** binds

B2: pdU50 RNA (mixed)
RNA 1: UUUUUUUUUUUUUUUUUUUUUUUUUUUUUUUUUUUUUUUUUUUUUUUUUUGCCUCGCUGCCGUCGCCA
RNA 2: UGGCGACGGCAGCGAGGC
**Q.** Does B2 bind [3]?
**A.** binds

B3: pdPAR22 (mixed)
DNA 1: TGGCGACGGCAGCGAGGC
DNA 2: GCCTCGCTGCCGTCGCCA
modifications: PAR 22-mer joined to DNA strand 1 by alkyne-azide click; PAR not part of printed strand
**Q.** Does B3 bind [2]?
**A.** binds

**Q.** Does B3 bind [4]?
**A.** binds
